From PMC10998907 (2024)

Experiments:
Assay in all cases: BLI
[1] = molecular target: T1, NiV-RBP global head domain, His-tagged (Nipah virus, UniProt Q9IH62, biotinylated for BLI only (EZ-link Sulfo-NHS-LC-Biotin))
T1 chain: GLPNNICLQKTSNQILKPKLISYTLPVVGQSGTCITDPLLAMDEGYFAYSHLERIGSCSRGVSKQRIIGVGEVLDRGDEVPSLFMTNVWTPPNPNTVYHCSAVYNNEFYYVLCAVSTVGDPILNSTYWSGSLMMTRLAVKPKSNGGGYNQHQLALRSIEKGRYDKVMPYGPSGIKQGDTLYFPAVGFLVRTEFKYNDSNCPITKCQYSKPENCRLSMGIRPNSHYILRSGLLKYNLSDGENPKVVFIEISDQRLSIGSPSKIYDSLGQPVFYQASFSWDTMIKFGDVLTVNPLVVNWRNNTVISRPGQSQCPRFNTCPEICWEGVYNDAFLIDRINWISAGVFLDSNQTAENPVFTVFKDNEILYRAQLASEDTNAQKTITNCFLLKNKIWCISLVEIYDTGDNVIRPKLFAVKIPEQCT

[2] = molecular target: T2, HeV-RBP global head domain, His-tagged (Hendra virus, UniProt O89343 183-602, biotinylated for BLI only (EZ-link Sulfo-NHS-LC-Biotin))
T2 sequence (O89343 183-602): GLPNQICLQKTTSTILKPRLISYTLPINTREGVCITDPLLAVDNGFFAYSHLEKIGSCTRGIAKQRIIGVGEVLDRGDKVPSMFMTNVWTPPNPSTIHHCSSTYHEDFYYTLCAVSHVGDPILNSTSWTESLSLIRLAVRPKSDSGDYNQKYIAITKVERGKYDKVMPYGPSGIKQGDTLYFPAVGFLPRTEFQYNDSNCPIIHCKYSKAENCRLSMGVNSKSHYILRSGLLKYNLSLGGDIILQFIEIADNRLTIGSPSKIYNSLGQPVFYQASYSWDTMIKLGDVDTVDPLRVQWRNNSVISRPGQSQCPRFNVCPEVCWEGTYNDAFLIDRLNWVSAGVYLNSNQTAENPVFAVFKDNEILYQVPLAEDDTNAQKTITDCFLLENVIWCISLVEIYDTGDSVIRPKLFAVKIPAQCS

[3] = molecular target: T1, NiV-RBP global head domain, His-tagged
[4] = molecular target: T2, HeV-RBP global head domain, His-tagged; remark: listed apart in the source

B1: 41-6 Fab fragment (Fab, V domains shown)
VH: EVQLVQSGGGLVQPGGSLRLSCAASGFTVSSNYMSWVRQAPGKGLEWVSAISGSGGSTYYADSVKGRFTISRDNSKNTLYLQMNSLRAEDTAVYYCARDREDIVVVPAPRGYYYYYYMDVWGQGTTVTVSS
VL: QSVVTQPPSVSAAPGQKVTISCSGSSSNIGTNHLSWYQQVPGTAPKLLIYDNNKRPSGIPDRFSGSKSGTSASLAISGLQSEDEADYYCATWDDSLHAWVFGGGTKLTVL
For B1, the koff [1] was 0.0002 s⁻¹, the koff [2] was 0.00018 s⁻¹ and the Kd [3] was 3.6 nM. The Kd [4] was 5.4 nM.
